Laboratory results taken from patent publication US20080292632A1 (US Dept. of Health and Human Services, published 2008).

What was measured:
[1] = molecular target: T1, IRTA1 extracellular domain-Fc fusion protein (human, UniProt Q96PJ5 20-387); assay: IRTA Fc-fusion
T1 construct: Whole entry named; also called IRTA1-Fc; IRTA1 (Fc-fusion); not shown: human IgG1 hinge and Fc
T1 sequence: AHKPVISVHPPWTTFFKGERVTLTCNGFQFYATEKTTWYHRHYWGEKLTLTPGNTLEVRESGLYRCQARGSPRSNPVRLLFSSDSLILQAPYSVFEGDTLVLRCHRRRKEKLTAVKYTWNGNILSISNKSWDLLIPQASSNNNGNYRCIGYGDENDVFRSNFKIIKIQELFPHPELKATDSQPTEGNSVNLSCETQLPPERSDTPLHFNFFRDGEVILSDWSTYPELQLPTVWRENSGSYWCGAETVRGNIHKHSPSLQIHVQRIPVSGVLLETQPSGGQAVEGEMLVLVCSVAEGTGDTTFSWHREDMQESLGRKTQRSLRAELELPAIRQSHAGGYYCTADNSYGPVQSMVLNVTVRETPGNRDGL
Procedure: (§1) Each Fc-fusion protein indicated on the top of the column was captured on ELISA plates using secondary antibody (goat anti-human IgG). After washing, 100 ng/50 μl/well of MAbs were added, followed by HRP-labeled goat anti-mouse IgG and TMBZ substrate. The signals in ELISA were normalized for the amounts of each Fc-fusion protein on the plates using HRP-goat anti-human Fc. The controls are MAbs 9E10 (anti-myc tag, IgG1), BerH2 (anti-CD30, IgG1), T408 (anti-CD30, IgG2a), T420 (anti-CD30, IgG2b) and HRP-goat anti-human Fc (1/2400 dilution). […] Two days after transfection, the cells were harvested and incubated with 200 ng/100 μl of each MAb, followed by PE-conjugated goat anti-mouse IgG F(ab′)2. […] In the positive control panels, the MAbs cross-reactive to other IRTAs were used. They are F26 (anti-IRTA1 and anti-IRTA2, IgG2b), F109 (anti-IRTA3, IgG2b), F47 (anti-IRTA4, IgG2a), and F69 (anti-IRTA5, IgG2a). BerH2 (anti-CD30, IgG1) was also used. “+” indicates more than 1.5-fold than that of the control; “++” indicates more than 10-fold mean fluorescence intensity than that of the negative control.
(§2) ELISA. In a typical indirect ELISA for the screening of hybridomas, microtiter plates (MaxiSorp; Nalge Nunc, Rochester, N.Y.) were coated with 100 ng/50 μl/well of goat anti-human IgG in phosphate buffered saline (PBS) for 2 hours at room temperature. Next, 50 ng/100 μl/well of IRTA2-Fc in blocking buffer (25% DMEM, 5% FBS, 25 mM HEPES, 0.5% bovine serum albumin, 0.1% sodium azide in PBS) was added to each well and incubated for 2 hours at room temperature. After washing with PBS containing 0.05% Tween 20, 50 μl of the hybridoma supernatants were added and incubated for 2 hours at room temperature. After washing, the bound MAbs were detected by a 2-hour incubation with horseradish peroxidase (HRP)-labeled goat anti-mouse IgG (Jackson ImmunoResearch, Grove, Pa.) followed by tetramethylbenzidine (TMB) substrate kit (Pierce, Rockford, Ill.). In some experiments, other IRTA-Fc fusion proteins were used instead of IRTA2-Fc.

[2] = molecular target: T2, IRTA3 extracellular domain-Fc fusion protein (human, UniProt Q96P31 18-573); assay: IRTA Fc-fusion
T2 construct: Whole entry named; also called IRTA3-Fc; IRTA3 (Fc-fusion); not shown: human IgG1 hinge and Fc
T2 sequence: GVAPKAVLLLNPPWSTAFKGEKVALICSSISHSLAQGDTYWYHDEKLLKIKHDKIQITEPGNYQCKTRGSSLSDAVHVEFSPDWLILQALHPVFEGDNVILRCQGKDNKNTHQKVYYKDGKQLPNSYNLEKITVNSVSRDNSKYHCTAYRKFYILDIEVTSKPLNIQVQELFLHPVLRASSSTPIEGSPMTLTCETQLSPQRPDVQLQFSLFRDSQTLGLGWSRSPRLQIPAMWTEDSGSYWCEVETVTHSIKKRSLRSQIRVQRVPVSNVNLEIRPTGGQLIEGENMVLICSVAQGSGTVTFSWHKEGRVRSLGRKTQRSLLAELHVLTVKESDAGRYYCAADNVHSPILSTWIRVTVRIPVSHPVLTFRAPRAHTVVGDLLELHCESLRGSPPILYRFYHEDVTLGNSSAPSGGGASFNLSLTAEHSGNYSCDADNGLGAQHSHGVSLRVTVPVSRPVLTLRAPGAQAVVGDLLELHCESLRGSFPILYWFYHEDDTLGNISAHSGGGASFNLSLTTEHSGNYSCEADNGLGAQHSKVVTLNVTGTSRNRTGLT
Procedure: as §1, §2

B1: F25 (antibody, IgG2a, V domains shown)
VH: EVQLQQSGPELVKPGTSVKMSCKASGYSFTGYFMNWMMQNHGKSLEWIGRINLYNGDTFYNQKFKDKATLTVDKSSNTVHMEFRSLASEDSAVYYCASSLYYFDYWGQGTTFTVSS
VL: DIVMTQSHKFMSTSVGDRVNITCKASQDVGTNVAWYQQKPGQSPKLLIYWASTRQTGVPDRFTGSGSGTDFTLTISNVQSEDLSDYFCQQYSSYPLTFGAGTKLELKR
notes: mouse hybridoma MAb, IgG2a, kappa; also called MAb F25; biotin-MAb F25
Which results are given for B1?
binding result [1]: no binding; binding result [2]: no binding
